These results are taken from article PMC5063714 (Journal of medicinal chemistry, 2016).

Holding throughout (experiment): AlphaScreen or HTRF
The target of test [1] is chromodomain of CBX8 (human) (UniProt Q9HC52).
Test [2] deals with chromodomain of CBX5 (human).
In test [3] the target is T1, chromodomain of CBX4 (human, UniProt O00257-1 8-65).
T1 sequence (looked up): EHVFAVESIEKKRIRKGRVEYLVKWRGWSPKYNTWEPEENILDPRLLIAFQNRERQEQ

The target of test [4] is T2, chromodomain of CBX7 (human, UniProt O95931 8-62).
T2 sequence (looked up): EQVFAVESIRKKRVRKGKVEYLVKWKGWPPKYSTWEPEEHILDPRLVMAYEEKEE

For test [5], the target named is T3, chromodomain of CDYL2 (human, UniProt Q8N8U2 1-75).
T3 sequence (looked up): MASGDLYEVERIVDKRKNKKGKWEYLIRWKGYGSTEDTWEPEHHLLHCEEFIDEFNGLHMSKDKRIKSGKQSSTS

In test [6] the target is chromodomain of CBX5 (human). The source holds these as a separate data set.
Test [7] addresses T1, chromodomain of CBX4. The source holds these as a separate data set.
Test [8] addresses T2, chromodomain of CBX7. This is another data set of the same source.
Test [9] concerns the target T3, chromodomain of CDYL2. The source holds these as a separate data set.
The target in a further test is T4, chromodomain of CBX8 (human, UniProt Q9HC52 8-61).
T4 sequence (looked up): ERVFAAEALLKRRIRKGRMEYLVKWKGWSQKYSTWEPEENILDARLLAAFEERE

Test [10] concerns the target chromodomain of CBX4 (human) (UniProt O00257).
Test [11] deals with chromodomain of CBX7 (human) (UniProt O95931).
For test [12], the target named is chromodomain of CBX8 (human) (UniProt Q9HC52). The source holds these as a separate data set.
Test [13] has as its target T5, chromodomain of CDYL2 (human) (UniProt Q8N8U2).
T5 sequence: T3 sequence (looked up)

Read-outs that look alike come from different tables or passages of the source. Square brackets hold non-standard residues; d marks the D form. Ends that are not written are not given here. * marks the point of attachment. Lys(Me3) = C[N+](C)(C)CCCC[C@H](N)C(=O)O; diethyl = not defined here; Bz = O=C(c1ccccc1)*

Chain of chromodomain of CBX5 (human) (Q9UN86 18-75): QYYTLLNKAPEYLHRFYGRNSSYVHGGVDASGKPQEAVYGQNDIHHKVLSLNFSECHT

As for compound 1 (UNC3866) (peptide), the IC50 (in general, the concentration that gives 50% inhibition) in test [1] is 1300 nM.
With {4‑tBu‑Bz}-FALK(diethyl)S (reading uncertain; also: C-terminal carbonyl removed entirely (R3 = -H)) [compound 46], the IC50 with chromodomain of CBX5 [2] is greater than 60000 nM; with chromodomain of CBX4 [3] it was 200 nM; in the test with chromodomain of CBX7 [4] it was 75 nM; with chromodomain of CDYL2 [5], 410 nM.
The matching figures for {4‑tBu‑Bz}-FALK(diethyl)S-OH (reading uncertain) [compound 44]: greater than 60000 nM, 240 nM, 130 nM and 740 nM.
The matching figures for {4‑tBu‑Bz}-F(CH2NHBoc)ALK(diethyl)S-OMe (reading uncertain) [compound 48]: 44000 nM, 98 nM, 56 nM and 160 nM.
Regarding Bz-FAL[Lys(Me3)]S-OMe [compound 5], the half-inhibitory concentration (IC50) turned out to be 49000 nM with chromodomain of CBX5 [6], 6900 nM with chromodomain of CBX4 [7], 2600 nM with chromodomain of CBX7 [8] and 570 nM with chromodomain of CDYL2 [9].
Turning to {4‑tBu‑Bz}-FVLK(diethyl)S-OMe (reading uncertain) [compound 43], the IC50 with chromodomain of CBX5 [2] was greater than 60000 nM; with chromodomain of CBX4 [3] it was 7900 nM; with chromodomain of CBX7 [4], 3100 nM; in the test with chromodomain of CBX8 it was 700 nM; with chromodomain of CDYL2 [5] it was 750 nM.
As for {4‑tBu‑Bz}-FALK(diethyl)S-NMe2 (reading uncertain) [compound 45], the IC50 was greater than 60000 nM in the test with chromodomain of CBX5 [2], 140 nM in the test with chromodomain of CBX4 [3], 47 nM with chromodomain of CBX7 [4] and 360 nM with chromodomain of CDYL2 [5].
As to Bz-FAL[Lys(Me3)] (also: C-terminal R2 = -H in place of -CO-Ser-OMe (no Ser)) [compound 7], the IC50 is greater than 60000 nM with chromodomain of CBX5 [6]; greater than 60000 nM in test [10]; greater than 60000 nM in test [11]; greater than 60000 nM in test [12]; 37000 nM in [13].

B1: compound 4 (peptide)
peptide: Bz-AL[Lys(Me3)]S-OMe
SMILES: COC(=O)[C@H](CO)NC(=O)[C@H](CCCC[N+](C)(C)C)NC(=O)[C@H](CC(C)C)NC(=O)[C@H](C)NC(=O)c1ccccc1
On to B1, for which the IC50 with chromodomain of CBX5 [6] is greater than 60000 nM; in test [10], greater than 60000 nM; in test [11] it was greater than 60000 nM; in test [12] it was greater than 60000 nM; in test [13], 16000 nM.
{4‑tBu‑Bz}-F(CH2NH2)ALK(diethyl)S-OMe (reading uncertain) [compound 47]: the IC50 is 53000 nM with chromodomain of CBX5 [2], 170 nM in the test with chromodomain of CBX4 [3], 63 nM with chromodomain of CBX7 [4] and 75 nM with chromodomain of CDYL2 [5].
